# Test results published in US20210261671A1 (HARPOON THERAPEUTICS, published 2021).
# Positions count from the first letter of the chain named.
# B1: FLL823 (VHH)
# VHH: QVQLQESGGGVVQVGGSLRLSCAASGGTFGYYAVGWFRQAPGKEREFVAAVTWNGAYLYSDPVKGRFTISRDNAKNTVYLQMNSLKSEDTAVYYCGLDRWSAVVESTPSTRGQGTQVTVSS
# notes: llama anti-FLT3 variable domain; E. coli periplasmic extract
# B2: FLL1 (VHH)
# VHH: QVQLQESGGGLVQAGGSLRLSCAASGRTFSTLTVAWFRQAPGKEREFVVASIPSGSNTGYAESVKGRFTISRDIAKNTVYLQMNSLKPEDTAMYFCAARIYFGSSRGYDYWGQGTQVTVSS
# notes: as for B1
# B3: FLL26 (VHH)
# VHH: B2 VHH with S30T, L32Y, V48L, S54T, G59A, D73G, I74N, F95Y, I100T
# notes: as for B1
# B4: FLL178 (VHH)
# VHH: QVQLQESGGGLVQPGGSLRLSCAASGFTFSDYAMSWVRQAPGKGLEWVSGISSGGYKIGYTDSTKGRFTISRDNAKNTLYLQMNSLTAEDTAVYYCAKGTQWSWSLRDNTSRGQGTQVTVSS
# notes: as for B1
# B5: FLL27 (VHH)
# VHH: B4 VHH with A23K, D31S, T87N, S105A, N109S
# notes: as for B1
# B6: FLL45 (VHH)
# VHH: QVQLQESGGGLVQAGGSLRLSCAASGGTFSSSAMGWFRQAPGKEREFVATITQNDVPTYYTHSVKGRFTISRDNAKNTMYLQMNSLKPEDTAVYYCAQRVAQASGWRTTIKDYGYWGQGTQVTVSS
# notes: as for B1
# B7: FLL822 (VHH)
# VHH: QVQLQESGGGSVQAGGSLRLSCTASGRTFTDYTMGWFRQAPGKEREFMLGISSNGYRRYYTGSMKDRFTISRDNVKKTVYLQMNDLKPEDTAVYYCAASEDHGAPRYDYWGQGTQVTVSS
# notes: as for B1
# B8: FLL190 (VHH)
# VHH: QVQLQESGGGLVQAGGSLTLSCTASGSTFSINHFSWYRQAPGKQRELVAFISSDGVSIDVESVKGRFTISGDNDKNTAYLQMNGLKPEDTAVYYCYYRGFWGQGTQVTVSS
# notes: as for B1
# B9: FLL43 (VHH)
# VHH: B8 VHH with A14P, S35A, V56R, I58T, F100S
# notes: as for B1
# B10: FLL125 (VHH)
# VHH: QVQLQESGGGLVQAGGSLRLSCAASGSTFSRNYIDWYRQAPGKQREWVAQITSGGNTHYEPSLKGRFTISRDNAKNTAYLQMNSLKPEDTAVYYCRILDYWGQGTQVTVSS
# notes: as for B1
# B11: FLL21 (VHH)
# VHH: B10 VHH with A14P, R19T
# notes: as for B1
# B12: FLL55 (VHH)
# VHH: B10 VHH with G54A
# notes: as for B1
# B13: FLL39 (VHH)
# VHH: QVQLQESGGGLVQAGGSLRLSCAASGLTSSTYRMAWFRQAPGKEREFAAGISYSADSGGSTNYADSVKGRFTISRDNAKNTVYLQMSSLKPEDTAVYYCAAGRYSGTYNSPYSSSYVYWGQGTQVTVSS
# notes: as for B1
# B14: FLL107 (VHH)
# VHH: QVQLQESGGGLVQAGGSLRLSCAASGRTFSSYAMGWFRQAPGKEREFVAAISWSGSNTYYADSVKGRFTISRDNAKNTVYLQMDSLKPEDTAVYYCAAGGSTRVVVTTTPVVKYWGQGTQVTVSS
# notes: as for B1
# B15: FLL4 (VHH)
# VHH: B14 VHH with G26E, A33T, I51M, S56G, N57S
# notes: as for B1
# B16: FLL78 (VHH)
# VHH: B14 VHH with L11W, N57S, Q82L
# notes: as for B1
# B17: FLL141 (VHH)
# VHH: B14 VHH with K43M, S56Y, N57S, N74D
# notes: as for B1
# B18: FLL34 (VHH)
# VHH: B14 VHH with M34L, S56G, N74D
# notes: as for B1
# B19: FLL61 (VHH)
# VHH: B14 VHH with G26E, S56G, N57S, V111I
# notes: as for B1
# B20: FLL177 (VHH)
# VHH: QVQLQESGGGLVQTGGSLRLSCAASGSTFSRNTMGWFRQAPGKERVFVLGISWSGIRSYYLDSAKARFTISRDNAKNTVYLQMNSLRPEDTAVYYCAAQEGSSPGPYKYWGQGTQVTVSS
# notes: as for B1
# B21: FLL116 (VHH)
# VHH: QVQLQESGGGLVQAGGSLRLSCAASGVTFSINYIDWYRQAPGKQREWVAQITRDSNSFYADSVKGRFAISRDNAKNTVYLQMNSLKPEDTAVYYCRVLSYWGQGTQVTVSS
# notes: as for B1
# B22: FLL129 (VHH)
# VHH: B21 VHH with I31A, N32S, K43N, Q44E, D54G, S55G, N56D
# notes: as for B1
# B23: FLL32 (VHH)
# VHH: B21 VHH with A23Q, S30N, K43R, N56T, S57R, T77M, M82L, V97I
# notes: as for B1
# B24: FLL51 (VHH)
# VHH: B21 VHH with A14P, V27F, T28D, N32S, K43N, Q44E, D54G, S55G, N56D, V97I
# notes: as for B1
# B25: FLL137 (VHH)
# VHH: B21 VHH with V27S, S30N, I31N, N32Y, Y33A, I34M, Y37F, N56S
# notes: as for B1
# B26: FLL187 (VHH)
# VHH: B21 VHH with A14P, D72E
# notes: as for B1
# B27: FLL146 (VHH)
# VHH: B21 VHH with S55D, N56T, S84N, K86R, V97L, Y100F
# notes: as for B1
# B28: FLL179 (VHH)
# VHH: B21 VHH with A23K, S55G, N56S, V97I, Y100D
# notes: as for B1
# B29: FLL181 (VHH)
# VHH: B21 VHH with G16D, I31A, N32S, K43N, Q44E, D54G, S55G, N56D
# notes: as for B1
# B30: FLL77 (VHH)
# VHH: B21 VHH with A14P, N32S, K43N, Q44E, D54G, S55G, N56D, V97I
# notes: as for B1
# B31: FLL101 (VHH)
# VHH: B21 VHH with S84N
# notes: as for B1
# B32: FLL97 (VHH)
# VHH: B21 VHH with I69V
# notes: as for B1
# B33: FLL14 (VHH)
# VHH: B21 VHH with V97L
# notes: as for B1
# B34: FLL103 (VHH)
# VHH: B21 VHH with A23E, V27P, I69V
# notes: as for B1
# B35: FLL15 (VHH)
# VHH: QVQLQESGGGLVQAGGSLSLSCAASEGTISHAAMGWFRQAPGKERQFVAYDTWTGGSTNYADSVKDRFTITGDHAKNTVYLQMNSLKPEDTGVYYCAVRGRYSASYTYTNPASYKYWGQGTQVTVSS
# notes: as for B1
# B36: FLL160 (VHH)
# VHH: QVQLQESGGGLVQAGDSLRLSCATSGRTFNLYRVGWFRQAPGKEREFVARITWSADITQYADSVKGRFTISRDNAKNTVYLQMNSLKPEDTAIYYCATTLRKSSGIYHVDDYDDWGQGTQVTVSS
# notes: as for B1
# B37: FLL173 (VHH)
# VHH: B36 VHH with D16G, A61T, V109T, D114Y
# notes: as for B1
# B38: FLL76 (VHH)
# VHH: QVQLQESGGGLVQAGGSLRLSCAASGGAFSSYVMGWFRQAPGKEREFVAAVISWSGRITDYADSVKGRFSISRDNAKSTVYLQMNNLKPEDTAVYYCAAKTGMYIDLRTSTFDYWGQGTQVTVSS
# notes: as for B1
# Molecular target: T1, human FLT3 protein (human, UniProt P36888 27-541, limits assumed)
# T1 construct: protein coated in the screening ELISA; also called ELISA FLT3
# Assay: colorimetric ELISA, periplasmic extract
# From the text: (§1) Llamas were immunized with purified FLT3 protein expressed in Expi293 cells. A phage display library for expression of heavy variable antibody domains was constructed from circulating B cells isolated from the immunized llamas (See van der Linden, de Geus, Stok, Bos, van Wassenaar, Verrips, and Frenken. 2000. J Immunol Methods 240:185-195). Phage clones were screened for binding to FLT3 by expressing llama anti-FLT3 proteins in E. coli, preparing periplasmic extracts, and performing colorimetric ELISAs.
row,ELISA FLT3 (absorbance),Binder
1,3.6,B1
2,3.4,B2
3,2.9,B3
4,4,B4
5,4,B5
6,4,B6
7,4,B7
8,4,B8
9,2,B9
10,2.1,B10
11,3.3,B11
12,2,B12
13,1.9,B13
14,3.8,B14
15,3.7,B15
16,4,B16
17,4,B17
18,4,B18
19,3.9,B19

row,ELISA FLT3 (absorbance),Binder
1,4,B20
2,1.1,B21
3,2.6,B22
4,1.6,B23
5,2.9,B24
6,1.8,B25
7,1.9,B26
8,0.9,B27
9,3.7,B28
10,3.2,B29
11,4,B30
12,1.7,B31
13,1.4,B32
14,1.8,B33
15,3.8,B34
16,2.5,B35
17,0.7,B36
18,0.5,B37
19,0.5,B38

# Molecular target: T1, human FLT3 protein
# Assay: colorimetric ELISA, signal over control wells lacking FLT3
# From the text: as §1
row,FLT3/control [ratio],Binder
1,4,B1
2,11,B2
3,4,B3
4,48,B4
5,10,B5
6,28,B6
7,17,B7
8,43,B8
9,12,B9
10,17,B10
11,20,B11
12,6,B12
13,12,B13
14,11,B14
15,43,B15
16,27,B16
17,28,B17
18,39,B18
19,25,B19

row,FLT3/control [ratio],Binder
1,54,B20
2,5,B21
3,9,B22
4,5,B23
5,16,B24
6,8,B25
7,18,B26
8,4,B27
9,17,B28
10,5,B29
11,22,B30
12,3,B31
13,7,B32
14,5,B33
15,28,B34
16,31,B35
17,9,B36
18,6,B37
19,5,B38
